The values that follow are results of earlier work, collected in publication PMC8746970, “Determination of the Peptide AWRK6 in Rat Plasma by Liquid Chromatography-Tandem Mass Spectrometry (LC-MS/MS) and Its Application to Pharmacokinetics” (Molecules, 2021).

The conditions of this data set: in vivo; cited from earlier work.

With glucagon-like peptide-1 [GLP-1], the elimination half-life was ~ 2 min.
